This note sets out measurements from paper PMC4023160, “Head-to-tail interactions of the coiled-coil domains regulate ClpB activity and cooperation with Hsp70 in protein disaggregation” (eLife, 2014).

Data set [1] concerns the molecule itself. Put plainly: FRET or BRET; Trp (Q427W, donor) to IAEDANS (Q502C, acceptor) between adjacent subunits; low salt buffer A (50 mM Tris pH 7.5, 5 mM MgCl2, 20 mM KCl, 2 mM DTT) without or with 2 mM ATP, 25°C, excitation 290 nm. Background: Bioluminescence resonance energy transfer reports proximity on the nanometre scale.
Data set [2] deals with the molecule itself. Put plainly: cross-linking; disulfide cross-linking: 4 μM ClpB cysteine variant, 25 μM Cu-Phenanthroline, 1 min at room temperature; non-reducing SDS gradient gel (3-8%).
Data set [3] deals with the molecule itself. As to the kind of experiment: crystal structure; SeMet protein with ATP (ADP bound), space group P65, one molecule in the asymmetric unit, 3.50 Å.
Data set [4] concerns the molecule itself. Put plainly: negative-stain EM single-particle reconstruction; BAP(HAP)-ClpP complexes formed in 20 mM Tris-HCl pH 7.5, 20 mM KCl, 15 mM MgCl2, 1 mM DTT, 2 mM ATPγS; stained with 2% uranyl acetate; side views of 2:2 complexes cut into 1:1 halves; sixfold symmetry imposed or none.

B1: ClpB-Q427W-Q502C-IAEDANS in the tryptophan-free ClpB-W462Y/W543L variant (natural protein)
chain: not shown
modifications: IAEDANS on the cysteine at 502 (Q502C), labelled with efficiencies of 70-80%
notes: ClpB of E. coli; also called wild type ClpB (FRET pair); source: purified (Ni-IDA, size exclusion chromatography Superdex S200); labelled with 1,5-IAEDANS
On to B1, for which the binding result in data set [1] is on record as “binds”.

B2: ClpB-K431C-S499C repressed (E432A) variant (natural protein)
chain: not shown
notes: ClpB of E. coli; source: purified (Ni-IDA, size exclusion chromatography Superdex S200); dialyzed to remove DTT
Turning to B2, the binding result in data set [2] was “binds”.

B3: ClpB-Q427W-Q502C-IAEDANS (W462Y/W543L) with E432A (natural protein)
chain: not shown
modifications: IAEDANS on the cysteine at 502 (Q502C), labelled with efficiencies of 70-80%
notes: ClpB of E. coli; also called E432A (FRET pair); source: purified (Ni-IDA, size exclusion chromatography Superdex S200); labelled with 1,5-IAEDANS
Regarding B3, the binding result in data set [1] was “binds”.

B4: ND truncation of E. coli ClpB (residues 159 to 858; E279A/E432A/E678A), SeMet (domain or fragment)
chain: not shown
modifications: selenomethionine (SeMet)
notes: ClpB of E. coli, residues 159 to 858, without the N-terminal domain; One molecule in the asymmetric unit (P65); monomers form a spiral assembly in the crystal; also called ClpB E279A/E432A/E678A (SeMet) + ATP; E. coli ClpB-E432A (crystal structure); source: purified (Ni-IDA, size exclusion chromatography Superdex S200)
Consider B4, for which the binding result in data set [3] is listed as “binds”.

B5: ClpB-K431C-S499C hyperactive (Y503D) variant (natural protein)
chain: not shown
notes: as for B2
On to B5, for which the binding result in data set [2] is reported as “binds”.

B6: ClpP protease (enzyme)
chain: not shown
notes: ClpP protease; source: purified as described previously (Oguchi et al., 2012); copies: 14
As to B6, the “stoichiometry N” value in data set [4] amounted to 14.

As a reminder, the stoichiometry N is the number of molecules, sites or subunits per partner or assembly.
